± gives the uncertainty stated by the source.
Assay: amyloid nucleation score (Sup35N fusion, yeast selection) (log enrichment); library NNK1; higher = more nucleation; inactive = no reads after selection
Outline: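 The nucleation score is a DiMSum log enrichment of output over input reads, centred on the mode score of non-aggregating sequences. Sequences under 100 input reads were excluded, and reads came from Illumina sequencing of plasmid inserts. Psi-negative yeast expressing Sup35N fused to peptides of 20 random codons were induced with 100 μM copper sulfate for 24 hours and grown 7 days at 30°C on medium lacking adenine and uracil. Random libraries had three technical output replicates.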

Row | Substance | amyloid nucleation score
1 | ALFVVCYRYFVESGTKWRRT | -0.009 ± 0.28
2 | YSSGYLWFFIGTS | -1.38 ± 1.7
3 | CTTLGLQPFRDWRFAGKLAR | 0.049 ± 1.1
4 | ISCTTFACTTRLKIRAAS | 0.434 ± 0.56
5 | LYLMGVRVMGNSICTLVRRL | inactive
6 | KKALTALM | 0.822 ± 0.98
7 | HEFYSVLMGHFVWLQPWETR | 0.839 ± 1.1
8 | YWGFGYPMFLNINMCLTSPE | 6.21 ± 0.091
9 | VNSLVVLF | 1.84 ± 0.23
10 | DPHYL | inactive
11 | KGRSCLGRLRLVGQMRPKYN | 0.366 ± 0.76
12 | GKEPVACRIPNKA | 1.17 ± 0.3
13 | CLYAIKLCM | 6.82 ± 0.043
14 | YPRPLWANRRPC | -0.151 ± 0.66
15 | THARMKFLWFARF | -0.282 ± 0.83
16 | FFIETVYATKNYKHW | 2.76 ± 0.11
17 | MIKSKM | -0.154 ± 0.61
18 | SNQAHSMLISTIIMILGCYC | 0.419 ± 0.34
19 | VCLVDSSWGW | 3.86 ± 0.085
20 | GQYVWADLINVVRLWVFVSR | 0.503 ± 0.87
21 | NEWVCLS | -0.179 ± 0.36
22 | PGYSVPFSCGDQVPQQLPIR | -0.538 ± 2.1
23 | NRCYMVYKFTV | -0.01 ± 0.33
24 | MVTDPWISTLSSFHLWGGFM | -0.318 ± 0.93
25 | CLVYSTYIDGQTLAKTF | -0.761 ± 1.2

Row | Substance | amyloid nucleation score
26 | VTFVIYNRDNSAEYGVVFC | -0.46 ± 0.71
27 | FSVWGLRLTRARMQTERVLL | 0.86 ± 0.59
28 | DIPYVFLLFLQECDNVFLCH | 2.54 ± 0.17
29 | HRNRFYVVLYRNLDLWL | -0.197 ± 0.23
30 | LDSTLSLQ | 0.071 ± 0.3
31 | HFEQGYAHSSYMWVLGRPMW | 2.86 ± 0.087
32 | FRRLMLWSCSV | -0.098 ± 1.3
33 | TTLPREYYHRRVSVG | 0.373 ± 0.43
34 | FYHKTFVYKEGLNGAALLGM | -0.023 ± 0.48
35 | GIRPNFTVRFGGSWSQRNDR | 0.749 ± 0.47
36 | IDKNVIIIKVLCMLIVFPTG | -0.771 ± 0.82
37 | DRKVGNHLFTRVCDEATMLM | 1.75 ± 0.41
38 | TQSGVIQDAACPAMGMSNVL | 0.289 ± 0.66
39 | TYCNMVITRQRNA | 0.685 ± 0.38
40 | CRLSNGV | -0.392 ± 0.31
41 | EMIMVGSMYSRGNSTCFPRA | 0.777 ± 0.17
42 | MKCYVFLKNWMWLVDYLDSI | -0.991 ± 2.4
43 | ICSWPNRRVAVPH | -0.482 ± 1.2
44 | LSYMGGIPGVLHVMPDAFTV | -0.077 ± 0.7
45 | IKLHSEGRIYHINFACRSVC | 0.199 ± 0.24
46 | LNLAKPLFSHRLRRFKCSYF | 2.08 ± 0.23
47 | SFMSGSFEWPRSYRALGFKA | -0.719 ± 1.2
48 | MRQQGWYTESTFVMCQFTGG | 2.04 ± 0.088
49 | ILSICLSLVFRPSVMIEYLR | 0.191 ± 0.26
50 | MTVSRNFDYAKLCEWRRVNR | -0.371 ± 0.37

Row | Substance | amyloid nucleation score
51 | IVAVDFGLFRMRTIPRAAVS | -0.144 ± 1.6
52 | GQFAFNMKNSLMNVVGVILE | inactive
53 | ILHQAILRCVSRYGLS | -0.012 ± 0.76
54 | TICSSTFNFCSCFVTYLRMG | 4.83 ± 0.072
55 | NISCDRGMLG | inactive
56 | CERQNYVP | 0.326 ± 1.2
57 | FVMFLPIYEF | -0.35 ± 0.8
58 | ENNTGSVETLYRCSEKLVLE | 0.228 ± 0.27
59 | MLYKIRDQIYIRHGSFEG | 0.224 ± 0.28
60 | IIHFKSGIWNATDGCLIMCV | 0.793 ± 0.65
61 | DPCSVGFVPPMVLGSLGGDV | -0.248 ± 0.71
62 | FIFSAVGRNN | -0.411 ± 0.57
63 | DVFGLLSIYYR | 1.1 ± 0.57
64 | ELTYFGNI | 1.5 ± 0.24
65 | TGNHSEVTT | 0.233 ± 0.32
66 | GRMNKNYA | inactive
67 | LLIGWASEDHRYKGISNGGG | 0.598 ± 0.34
68 | RNVRGSSKT | 1.37 ± 0.48
69 | HSGSDSAITVVSLGIRE | -0.19 ± 0.91
70 | GFFVNNCLFSILLDFWVSEE | 1.24 ± 0.26
71 | VHKDFHANANRVSWQLAL | -0.243 ± 0.73
72 | QDLICVFMGCVIS | 7.942 ± 0.044
73 | RSIFSWSTR | 0.641 ± 0.42
74 | SRVVFTSM | -1.18 ± 1.6
75 | GSGWEGSTVRFSQASFGELW | 0.328 ± 0.97

Row | Substance | amyloid nucleation score
76 | KSRWHMLLNS | 0.051 ± 0.72
77 | FLTFKMN | inactive
78 | MFVRPRESAEHMLGFRVYSG | 0.452 ± 0.37
79 | GFRQVSCHHHWGGNSWMCR | 0.717 ± 0.19
80 | LAELWECDKSLKSPGAYWVL | 1.49 ± 0.73
81 | RPSPEGY | 1.37 ± 0.84
82 | CVVESMSIIMRRCSLS | -0.861 ± 0.42
83 | ASFRNRPCVQCPGLCILRLS | 0.002 ± 0.24
84 | GLWLQL | 0.216 ± 0.26
85 | QNDLERWAEGQASKMLG | 0.433 ± 0.4
86 | NVSSLQDFRVMFWIFECTTR | 0.052 ± 0.44
87 | QVGPVREHEHKVLAGLSMDW | 0.498 ± 0.38
88 | WITYHEFWRLTKGCLSFTDL | 0.023 ± 0.55
89 | FLSRCGWAYVMV | -0.493 ± 0.26
90 | WHGVFKTRNRLCGTLPWFCA | -0.143 ± 0.51
91 | TKMHCVGGSSRTNKSLWTIY | 1.08 ± 0.57
92 | SSKMNILP | 0.51 ± 0.26
93 | KVLGQGYERMDLFIVVFR | -0.357 ± 0.59
94 | HVVFVMDVRYPKIAVVYLLA | 1.1 ± 0.66
95 | SQLWCLTNKHRKQQRKAGHY | 0.027 ± 0.53
96 | GLMNSRYMYVVNMS | 0.758 ± 0.4
97 | SFFFSRVGSLFCLRFYDVFG | -0.858 ± 1.3
98 | HIQLIYVTIVLESRLSWWRI | 0.934 ± 0.53
99 | DCRFNRGGFNNVR | 0.514 ± 0.31
100 | SSDMGFFARYLSLNH | 0.512 ± 0.55

Row | Substance | amyloid nucleation score
101 | RVFRASNDR | 0.241 ± 1.1
102 | MLGCFISFTIKLLG | 1.39 ± 0.11
103 | EDGPWACTCYYCGQGRRTWV | 0.16 ± 0.9
104 | AFSTG | inactive
105 | NKNMSNKFVSIMQKFFSIDG | 2.72 ± 0.13
106 | KNKPL | 2.72 ± 0.15
107 | TYILVFSVIYPSLKYECFCQ | 1.6 ± 0.61
108 | HIMEIVESFTIETRMIKGCV | 0.874 ± 0.53
109 | HTYSWKISDSSYPTFPELFW | 0.121 ± 0.39
110 | LYSVRLRSVSK | -0.376 ± 0.25
111 | LPRRKLNFIGLKISISIIAV | inactive
112 | IFSHIPCLITFSNDQ | 2.13 ± 0.43
113 | VPNYHAISYIVDLTMCSLFQ | 8.383 ± 0.057
114 | IKLTPLMLRTTELV | -1.32 ± 0.5
115 | FDYLCSGGMSTILSCITFPL | -0.37 ± 0.9
116 | YHIMGFSSYGGVVRWMSS | -0.312 ± 0.36
117 | SMIGRSCYEV | inactive
118 | VDKNMFI | -0.021 ± 1.2
119 | TYRNS | -0.891 ± 1.2
120 | GMLDAY | inactive
121 | YTRMICGSMMGGVMREMRIM | 0.739 ± 0.36
122 | YGDGMGPWCYCWAFAEPRRS | 0.114 ± 1.1
123 | WLTNWFEPRWSLVMQSVRCP | -0.121 ± 0.44
124 | MDAFPEFLGVVFHSDDFGVP | -0.209 ± 0.39
125 | CVMNLYGGMPHAGRWTGF | 4.33 ± 0.11

Row | Substance | amyloid nucleation score
126 | LLWGATFCSSIQPDYNLSPV | -0.095 ± 0.44
127 | MSLDGD | 0.868 ± 0.29
128 | IVDVVLSMGLLYLTSVNY | -0.369 ± 0.74
129 | PIRVM | -0.495 ± 0.43
130 | VYYLGVKAFLFNSSF | 0.824 ± 0.54
131 | SLPFTFSLVMMCFFVCVRGL | -1.76 ± 1.2
132 | FLPWVLFFSQ | 0.816 ± 0.62
133 | QARSGPTPLTTWRTRQVTLG | -0.178 ± 0.51
134 | WVTSSAFEE | 0.277 ± 0.7
135 | NLAGI | 0.716 ± 0.88
136 | VTRVRFGSVWGSQVHRNFVM | 0.212 ± 0.4
137 | SNFCDSDLYLFRNWPYYWHS | -0.434 ± 0.26
138 | CHSHDVCRGMLT | -0.135 ± 0.38
139 | TGLSCCCMNISRNGREMVPR | 6.281 ± 0.058
140 | LLTSMSSGLVDYR | inactive
141 | FRGTVFSW | -0.26 ± 0.69
142 | CYGGWVYLLRIALCGEDSVI | 0.58 ± 0.58
143 | TLSISTMIAAVGTLSVCGDM | 0.768 ± 0.16
144 | SVDIAINALS | 0.492 ± 0.41
145 | EANMIYFLNGANLHRFFKHF | 1.59 ± 0.35
146 | TASLLLTLLFGLPEGLLW | 0.975 ± 0.3
147 | LPWYSSQMRADVSTPERWFL | -0.224 ± 0.7
148 | GACLWGT | 0.338 ± 0.29
149 | FRMRHQERMAGTPVGMGLYC | -0.327 ± 0.69
150 | DMEQAICEPSLFKIVGDNNL | -0.186 ± 0.86

Row | Substance | amyloid nucleation score
151 | FTCRFFVCFGLCGDHEHSPI | 7.561 ± 0.057
152 | WAICDSLLVLVSRKGSASSP | -1.56 ± 1.4
153 | HQIFIWVVGLGTFETPRNHK | 5.96 ± 0.066
154 | HMFIFPYGAFMMERLFSGAI | 0.198 ± 0.97
155 | SACSESSVIWTNFH | 0.292 ± 0.39
156 | TSTARISQPDNRVGLNF | -0.032 ± 0.44
157 | FEAFFNGHSSREYLVISVRL | 0.153 ± 1.2
158 | CSYGARGIWATESIVANKSV | inactive
159 | TFADNF | -1.28 ± 1.1
160 | VTACGYRMRRCRCFCECNGT | 0.72 ± 0.57
161 | MVCTYNVRCIEMETRYPRSR | 0.791 ± 0.97
162 | ARVGFTLT | -0.265 ± 0.87
163 | TTIAIRVLFQIVMVVSESRS | -0.247 ± 0.24
164 | SFWNSLV | 0.468 ± 1.2
165 | TSRFPKASKSRLTRDCP | 0.323 ± 0.35
166 | SFVFGHIVKK | 2.72 ± 0.086
167 | STEIATKGGGQLGIISTNDA | 0.254 ± 0.56
168 | YVSAVGLWVVLYYMMRMCAS | inactive
169 | ISRADVWVWFLLSMSRREYF | 0.268 ± 0.55
170 | AWIDCVSTNTTLDIPSLGP | 0.402 ± 0.24
171 | KMATRINGWCDGASATTV | -0.154 ± 0.74
172 | LRNRMGNDIISILITIPKIV | 0.217 ± 0.34
173 | NMQTYGGLKE | 0.116 ± 0.71
174 | MLGFYKSWCFNFSNMNVH | 0.979 ± 0.57
175 | CNKNNCWCYHCSYQVWHALY | 0.381 ± 0.42
